Ends that are not written are not given here.
B1: IFNγR21-295: mutant encoding amino acids 1-295 of IFNγR2, retaining Jak2-binding domain but not the C-terminal 41 amino acids (protein)
chain: APPDPLSQLPAPQHPKIRLYNAEQVLSWEPVALSNSTRPVVYQVQFKYTDSKWFTADIMSIGVNCTQITATECDFTAASPSAGFPMDFNVTLRLRAELGALHSAWVTMPWFQHYRNVTVGPPENIEVTPGEGSLIIRFSSPFDIADTSTAFFCYYVHYWEKGGIQQVKGPFRSNSISLDNLKPSRVYCLQVQAQLLWNKSNIFRVGHLSNISCYETMADASTELQQVILISVGTFSLLSVLAGACFFLVLKYRGLIKYWFHTPPSIPLQIEEYL
modifications: left off: large carriers

Columns and labels:
Bax [1] = biological target: T1, Bax (Homo sapiens, UniProt Q07812); experiment: Apoptosis induced by Bax overexpression in HEK293 cells (Hoechst nuclear staining); type: cell-based; parameters: expressed in transfected cells; host or cells: HEK293; conditions: HEK293 cells co-transfected with pcDNA3-h Bax and pEGFP-C2-IFNγR2 construct, 24 h after transfection
Description: (§1) Cells were cultured overnight in DMEM supplemented with 10% FBS. The transfections were performed using […]® (Qiagen, Valencia, Calif.) in accordance with the manufacturer's instructions. Transfection efficiency was analyzed by the expression of the EGFP-tagged proteins.
(§2) Apoptosis was induced by transfecting the cells with pcDNA3-human Bax, or pcDNA3-human Bak, or pcDNA3-human Bim EL, or by treatment with etoposide (10 μM) or staurosporine (100 nM). To determine the induction of apoptosis by different apoptotic stresses, cells were stained with Hoechst 33258 dye, and the numbers of cells with apoptotic nuclei were counted using fluorescence microscopy. Three hundred cells were analyzed in triplicate samples. […] Caspase activity were measured by using a fluorogenic caspase 3 substrate II (Calbiochem), IFNγR2 constructs were cloned in pEGFP-C2 (IFNγR2wild type, IFNγR21-295 and IFNγR2296-337) vector.
(§3) For Bax, Bak or Bim EL overexpression, cells were transfected with either 1 μg pcDNA3-human Bax, 1 μg pcDNA3-human Bak, or 1 μg pcDNA3 human Bim EL, and 4 μg of pEGFP plasmid encoding IFNγR2, and the apoptosis or caspase activity was determined 24 h after the transfection.

Bax [2] = biological target: T1, Bax; experiment: Staurosporine-induced Bax activation in HeLa cells (6A7 antibody immunostaining); type: cell-based; parameters: endogenous in cells; host or cells: HeLa; conditions: staurosporine 100 nM, 3 h
Description: HeLa cells were transiently transfected with pEGFP-C2-IFNγR2 (wild type 1-295, or 296-337) using […]® (Qiagen, Valencia, Calif.) in accordance with the manufacturer's instructions. Four micograms of the plasmid were used to transfect cells cultured in 6-cm diameter dishes. After 24 h of transfection, the cells were treated with staurosporine (100 nM) for 3 h. Then, the cells were washed with phosphate buffer pH 7.4 (PBS), fixed using paraformaldehyde (1%), permeabilized with Triton X-100 (0.02%), blocked with goat serum, and the activation of Bax was analyzed by immunocytochemistry using monoclonal Bax 6A7 antibody (BDPharmingen) and ALEXA FLUOR® 568-labeled anti-mouse IgG secondary antibody (Invitrogen).

[3] = system: HT1080 (IFNγR2 null mutant and JAK2 null mutant) cells; experiment: Etoposide-induced apoptosis in HT1080-derived IFNγR2 null and Jak2 null cells (Hoechst nuclear staining); type: cell-based, human; conditions: cells lacking IFNγR2 and Jak2, 10 μM etoposide for 24 h
Description: HT1080 (wild type, IFNγR2 null mutant and JAK2 null mutant) cells were cultured in Dulbecco's Modified Eagle's Medium (DMEM) supplemented with 10% fetal bovine serum (FBS). HeLa, Human Embryonic Kidney (HEK) 293 and HEK293T cells were purchased from ATCC, and cultured in DMEM supplemented with 10% FBS. LNCap and PC3 cells were purchased from ATCC and cultured in DMEM F12 medium supplemented with 10% FBS. RWPE1 and RWPE2 were purchased from ATCC and cultured in keratinocytes-SFM plus supplements medium (Gibco). Primary mammary epithelial (4A100) cultures were derived from organoids isolated from discarded mammary tissue acquired from patients undergoing reduction mammoplasty surgery. Anonymized specimens were acquired from patients who had given written consent, through the Tissue Procurement and Histology Core Facility of the Case Comprehensive Cancer Center (Case), under a Case CCC IRB approved protocol. Primary epithelial cultures were grown in M87A+X medium. Human HME1 cells (Clontech) were grown in medium 171 with mammary epithelial growth supplement (Cascade Biologics) and penicillin-streptomycin.42 Human breast cancer cell line MDA-MD468 was cultured in RPMI, 5% FBS, supplemented with L-glutamine, penicillin-streptomycin and fungizone (Gibco). […]
Cells were cultured overnight in DMEM supplemented with 10% FBS. […] Transfection efficiency was analyzed by the expression of the EGFP-tagged proteins.
as §2

human Bim EL = experiment: Apoptosis induced by Bim overexpression in HEK293T cells; type: cell-based; conditions: 24 h after transfection
Description: as §1, §2, §3

T1 sequence (Q07812 whole entry): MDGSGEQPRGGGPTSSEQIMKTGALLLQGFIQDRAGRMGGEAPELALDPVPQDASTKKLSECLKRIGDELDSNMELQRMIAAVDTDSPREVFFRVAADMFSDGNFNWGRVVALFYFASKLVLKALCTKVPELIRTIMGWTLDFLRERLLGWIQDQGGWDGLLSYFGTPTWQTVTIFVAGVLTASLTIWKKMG

Row | Molecule | Inhibition of apoptosis induced by Bax overexpression (Bax [1]) | Inhibition of STS-induced Bax activation (6A7 Ab-positive cells in GFP-positive cells) (Bax [2]) | Inhibition of etoposide-induced apoptosis [3] | Inhibition of apoptosis induced by Bim overexpression (human Bim EL)
1 | IFNγR2296-337: mutant encoding amino acids 296-337 of IFNγR2, lacking the Jak2-binding domain; expressed as EGFP fusion (KDPTQPILEALDKDSSPKDDVWDSVSIISFPEKEQEDVLQTL; also: EGFP fusion; listed as Homo sapiens) | able to inhibit apoptosis induced by Bax overexpression | inhibited STS-induced Bax activation | able to inhibit etoposide-induced apoptosis | able to inhibit apoptosis induced by Bim overexpression
2 | B1 | could not protect cells from Bax | did not inhibit Bax activation | could not | 

— patent US9458427B2, “IFNγR2 compositions and methods of inhibiting neuronal cell death” (Case Western Reserve University, priority 2009, dated 2016)
